5/6‑FAM = 5/6-fluorescein amidite
B1: BL6-22_Y4eK (peptide)
peptide: {5/6‑FAM}-RPIIWIGQEISRVGDRENAYKAR-NH2
B2: KL6-7_D3fA (peptide)
peptide: {5/6‑FAM}-RPQIWIHQGLQRLGAGLNAYYAR-NH2
B3: KL6-7 (peptide)
peptide: {5/6‑FAM}-RPQIWIHQGLQRLGDGLNAYYAR-NH2
B4: BL6-22 (peptide)
peptide: {5/6‑FAM}-RPIIWIGQEISRVGDRENAYYAR-NH2
B5: KScomp (peptide)
peptide: {5/6‑FAM}-RPNIWLTQRLQRTGDGLNAYYAR-NH2
B6: KL6-7_Y4eK (peptide)
peptide: {5/6‑FAM}-RPQIWIHQGLQRLGDGLNAYKAR-NH2

biological target: KSBcl-2 (Kaposi's sarcoma-associated herpesvirus Bcl-2 homolog), c-myc-tagged (Kaposi's sarcoma-associated herpesvirus …, UniProt P90504 1-175); assay: fluorescence polarisation

| Binder | Kd [nM] |
| --- | --- |
| B1 | 750 |
| B2 | 180 |
| B3 | 1.6 |
| B4 | 1100 |
| B5 | 13 |
| B6 | 2.9 |

Source: PMC4520770 (Journal of molecular biology, 2015)
